Measurements reported in the supplement of paper PMC10567573.

B1: RPS21 (parent)
chain: AEVSWEPGRREGCDICAGKAGCPI
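Note: lentivirally expressed fusions sorted by FACS into six bins by GFP to DsRed ratio, PSI derived from sequencing read proportions per bin multiplied by bin number.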

Variants of: B1
Test: protein stability index of a GFP-peptide fusion (GPS, HEK-293T) (PSI 1-6); higher = more stable
Conditions: c terminus: a fixed tail appended
With AEVSWEPGRRHGCDICAGKAGCPI [E11H] the protein stability index was 3.53.
In the case of AEVSWEPGRRYGCDICAGKAGCPI [E11Y], the protein stability index is reported as 2.69.
AEVSWEPGRRWGCDICAGKAGCPI [E11W] showed a protein stability index of 2.13.
With AEVSWEPGRRTGCDICAGKAGCPI [E11T] the protein stability index was 2.87.
AEVSWEPGRRSGCDICAGKAGCPI [E11S] gave a protein stability index of 2.96.
Work on AEVSWEPGRRGGCDICAGKAGCPI [E11G] yielded a protein stability index of 1.99.
AEVSWEPGRRNGCDICAGKAGCPI [E11N] showed a protein stability index of 2.55.
With AEVSWEPGRRPGCDICAGKAGCPI [E11P] the protein stability index was 2.92.
In the case of AEVSWEPGRRKGCDICAGKAGCPI [E11K], the protein stability index is reported as 2.6.
AEVSWEPGRRCGCDICAGKAGCPI [E11C] gave a protein stability index of 3.22.
In the case of AEVSWEPGRRLGCDICAGKAGCPI [E11L], the protein stability index is reported as 2.46.
AEVSWEPGRRAGCDICAGKAGCPI [E11A] showed a protein stability index of 1.95.
With AEVSWEPGRREGCDICAGKAGCPC [I24C] the protein stability index was 5.83.
With AEVSWEPGRREGCDICAGKAGCPS [I24S] the protein stability index was 3.79.
Variant AEVSWEPGRREGCDICAGKAGCPY [I24Y] has a protein stability index of 2.54.
In the case of AEVSWEPGRREGCDICAGKAGCPH [I24H], the protein stability index is reported as 5.43.
In the case of AEVSWEPGRREGCDICAGKAGCPA [I24A], the protein stability index is reported as 4.48.
Work on AEVSWEPGRREGCDICAGKAGCPT [I24T] yielded a protein stability index of 3.96.
With AEVSWEPGAREGCDICAGKAGCPI [R9A] the protein stability index was 3.95.
AEVSWEPGTREGCDICAGKAGCPI [R9T] gave a protein stability index of 3.67.
For AEVSWEPGPREGCDICAGKAGCPI [R9P], the protein stability index was 3.26.
Work on AEVSWEPGIREGCDICAGKAGCPI [R9I] yielded a protein stability index of 3.14.
Variant AEVSWEPGNREGCDICAGKAGCPI [R9N] has a protein stability index of 3.35.
For AEVSWEPGRREGCDILAGKAGCPI [C16L], the protein stability index was 4.
With AEVSWEPGRREGCDIRAGKAGCPI [C16R] the protein stability index was 4.22.
With AEVSWEPGRREGCDIIAGKAGCPI [C16I] the protein stability index was 3.69.
AEVSWEPGRREGCDIVAGKAGCPI [C16V] gave a protein stability index of 3.67.
Work on AEVSWEPGRREGCDIYAGKAGCPI [C16Y] yielded a protein stability index of 3.04.
For AEVSWEPGRREGCDIKAGKAGCPI [C16K], the protein stability index was 3.86.
Variant AEVSWEPGRREGCDIWAGKAGCPI [C16W] has a protein stability index of 1.6.
AEVSWEPGRREGCDIFAGKAGCPI [C16F] gave a protein stability index of 3.58.
Variant AEVSWEPGRREGCDIDAGKAGCPI [C16D] has a protein stability index of 3.44.
In the case of AEVSWCPGRREGCDICAGKAGCPI [E6C], the protein stability index is reported as 2.23.
In the case of AEVSWNPGRREGCDICAGKAGCPI [E6N], the protein stability index is reported as 3.49.
Variant AEVSWFPGRREGCDICAGKAGCPI [E6F] has a protein stability index of 2.14.
In the case of AEVSWWPGRREGCDICAGKAGCPI [E6W], the protein stability index is reported as 1.56.
AEVSWMPGRREGCDICAGKAGCPI [E6M] showed a protein stability index of 2.6.
Variant AEVSWPPGRREGCDICAGKAGCPI [E6P] has a protein stability index of 3.
For AEVSWEPGRREGCDICAGKAYCPI [G21Y], the protein stability index was 3.56.
Variant AEVSWEPGRREGCDICAGKANCPI [G21N] has a protein stability index of 2.82.
In the case of AEVSWEPGRREGCDICAGKACCPI [G21C], the protein stability index is reported as 2.84.
Variant AEVSWEPGRREGCDICAGKADCPI [G21D] has a protein stability index of 3.59.
Work on AEVSWEPGRREGCDICAGKAPCPI [G21P] yielded a protein stability index of 3.35.
Work on AEVSWEPGRREGCDICGGKAGCPI [A17G] yielded a protein stability index of 3.38.
For AEVSWEPGRREGCDICSGKAGCPI [A17S], the protein stability index was 2.46.
Work on AEVSWEPGRREGCDICIGKAGCPI [A17I] yielded a protein stability index of 2.59.
In the case of AEVSWEPGRREGCDICHGKAGCPI [A17H], the protein stability index is reported as 3.66.
Variant AEVSWEPGRREGCDICYGKAGCPI [A17Y] has a protein stability index of 3.57.
Variant AEVSWEPGRREGCDICMGKAGCPI [A17M] has a protein stability index of 2.29.
AEVSWEPGRREGCDICRGKAGCPI [A17R] showed a protein stability index of 2.97.
AEVSWEPGRREGCDICPGKAGCPI [A17P] showed a protein stability index of 3.72.
With AEVSWEPGRREGCDICVGKAGCPI [A17V] the protein stability index was 3.14.
Work on AEVSWEPGRREGCDICFGKAGCPI [A17F] yielded a protein stability index of 2.3.
AEVSWEPGRREGFDICAGKAGCPI [C13F] gave a protein stability index of 3.97.
Variant AEVSWEPGRREGMDICAGKAGCPI [C13M] has a protein stability index of 4.01.
With AEVSWEPGRREGHDICAGKAGCPI [C13H] the protein stability index was 4.27.
With AEVSWEPGRREGGDICAGKAGCPI [C13G] the protein stability index was 3.88.
AEVSWEPGRREGCDICAGKCGCPI [A20C] showed a protein stability index of 4.67.
Work on AEVSWEPGRREGCDICAGKYGCPI [A20Y] yielded a protein stability index of 2.96.
In the case of AEVSWEPGRREGCDICAGKFGCPI [A20F], the protein stability index is reported as 3.1.
AEVSWEPGRREGCDICAGKIGCPI [A20I] showed a protein stability index of 2.53.
AEVSWEPGRREGCDICAGKVGCPI [A20V] showed a protein stability index of 2.59.
With AEVSWEPGRREGCDICAGKKGCPI [A20K] the protein stability index was 1.5.
AEVSWEPGRREGCDICAGKHGCPI [A20H] showed a protein stability index of 3.25.
Variant AEVSWEPGRREGCDICAGKLGCPI [A20L] has a protein stability index of 2.48.
Variant AEVSWEPGRREGCDICAGKDGCPI [A20D] has a protein stability index of 3.5.
AEVSWEPGRREGCDICAGKSGCPI [A20S] gave a protein stability index of 3.69.
In the case of AEVSWEPGRREGCDICAGDAGCPI [K19D], the protein stability index is reported as 4.29.
With AEVSWEPGRREGCDICAGIAGCPI [K19I] the protein stability index was 3.79.
Work on AEVSWEPGRREGCDICAGQAGCPI [K19Q] yielded a protein stability index of 2.97.
Variant AEVSWEPGRREGCDICAGHAGCPI [K19H] has a protein stability index of 2.13.
For AEVSWEPGRREGCDICAGFAGCPI [K19F], the protein stability index was 2.15.
Work on AEVSWEPGRREGCDICAGGAGCPI [K19G] yielded a protein stability index of 3.99.
Work on AEVSWEPGRREGCDICAGYAGCPI [K19Y] yielded a protein stability index of 2.24.
For AEVSWEPGRREGCDICAGWAGCPI [K19W], the protein stability index was 1.28.
In the case of AEVSWEPGRREGCDICAGMAGCPI [K19M], the protein stability index is reported as 2.48.
Variant AEVSWEPGRREGCDICAGLAGCPI [K19L] has a protein stability index of 2.3.
Variant AEVSWEIGRREGCDICAGKAGCPI [P7I] has a protein stability index of 2.97.
Variant AEVSWEQGRREGCDICAGKAGCPI [P7Q] has a protein stability index of 2.6.
AEVSWEEGRREGCDICAGKAGCPI [P7E] showed a protein stability index of 4.
Variant AEVSWECGRREGCDICAGKAGCPI [P7C] has a protein stability index of 2.69.
Variant AEVSWERGRREGCDICAGKAGCPI [P7R] has a protein stability index of 2.53.
Work on AEVSWEVGRREGCDICAGKAGCPI [P7V] yielded a protein stability index of 2.23.
AEVGWEPGRREGCDICAGKAGCPI [S4G] showed a protein stability index of 3.64.
Variant AEVWWEPGRREGCDICAGKAGCPI [S4W] has a protein stability index of 2.79.
With AEVNWEPGRREGCDICAGKAGCPI [S4N] the protein stability index was 4.34.
Work on AEVVWEPGRREGCDICAGKAGCPI [S4V] yielded a protein stability index of 3.23.
Work on AEVKWEPGRREGCDICAGKAGCPI [S4K] yielded a protein stability index of 3.77.
AEVAWEPGRREGCDICAGKAGCPI [S4A] gave a protein stability index of 4.39.
With AEVEWEPGRREGCDICAGKAGCPI [S4E] the protein stability index was 4.2.
In the case of AEVYWEPGRREGCDICAGKAGCPI [S4Y], the protein stability index is reported as 2.92.
With AEVCWEPGRREGCDICAGKAGCPI [S4C] the protein stability index was 3.24.
AEVTWEPGRREGCDICAGKAGCPI [S4T] gave a protein stability index of 2.54.
AEVSYEPGRREGCDICAGKAGCPI [W5Y] showed a protein stability index of 2.91.
